# Positions count from the first letter of the chain named.
# T1: human 5T4 (trophoblast glycoprotein), endogenous on the cell surface (human, UniProt Q13641 32-420)
# T1 construct: also called TPBG; 5T4 oncofetal antigen
# T1 sequence: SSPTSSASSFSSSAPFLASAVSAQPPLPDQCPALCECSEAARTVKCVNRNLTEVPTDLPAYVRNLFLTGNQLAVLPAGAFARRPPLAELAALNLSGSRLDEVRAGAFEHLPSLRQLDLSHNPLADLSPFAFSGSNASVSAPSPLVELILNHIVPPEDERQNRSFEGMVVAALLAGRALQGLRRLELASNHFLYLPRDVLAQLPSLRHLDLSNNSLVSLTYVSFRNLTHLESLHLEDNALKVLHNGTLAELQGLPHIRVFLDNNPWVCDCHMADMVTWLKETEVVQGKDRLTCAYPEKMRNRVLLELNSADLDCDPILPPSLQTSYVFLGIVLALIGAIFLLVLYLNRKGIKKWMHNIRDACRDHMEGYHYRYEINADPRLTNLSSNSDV
# B1: hz14B5v4 sdAb-Fc (Fc fusion)
# chain: EVQLVESGGGEVQPGGSLRLSCAASERPFGTYAMGWFRQAPGKERDLVAAVSRNGGASQYAESVKGRFTISRDNAKNTVYLQMSSLRAEDTAVYYCAARSAAYSRSSEVYTGKDEYYYWGQGTLVTVKP
# notes: Humanized variant of 14B5, linked to a human Fc; not shown: human Fc
# B2: hz14B5v6 sdAb-Fc (Fc fusion)
# chain: B1 chain with G55T, V79M
# notes: as for B1
# B3: hz14B5v5 sdAb-Fc (Fc fusion)
# chain: B1 chain with G55A, V79M
# notes: as for B1
# B4: hz14B5v9 sdAb-Fc (Fc fusion)
# chain: B1 chain with A61G, E62D, V79M
# notes: as for B1
# B5: hz14B5v8 sdAb-Fc (Fc fusion)
# chain: B1 chain with N54G, V79M
# notes: as for B1
# B6: hz14B5v10 sdAb-Fc (Fc fusion)
# chain: B1 chain with A61G, V79M
# notes: Humanized variant of 14B5, linked to a human Fc; also called hz14B510; not shown: human Fc
# B7: hz14B5v1 sdAb-Fc (Fc fusion)
# chain: B1 chain with E44G, A49S, V79L
# notes: as for B1
# B8: hz14B5v7 sdAb-Fc (Fc fusion)
# chain: B1 chain with N54Q, V79M
# notes: as for B1
# B9: hz14B5v3 sdAb-Fc (Fc fusion)
# chain: B1 chain with V79M
# notes: as for B1
# B10: hz16G10v1 sdAb-Fc (Fc fusion)
# chain: EVQLVESGGGEVQPGGSLRLSCAASGRPFSSSAMGWFRQAPGKGRETVSAVSRNGGSSYYAESVKGRFTISRDNAKNTLYLQMSSLRAEDTAVYYCAARSAAYSRSSETYTEKHDYTYWGQGTLVTVKP
# notes: Humanized variant of 16G10, linked to a human Fc; not shown: human Fc
# B11: hz16G10v5 sdAb-Fc (Fc fusion)
# chain: B10 chain with G44E, S49A, N54G, L79V
# notes: as for B10
# B12: hz16G10v3 sdAb-Fc (Fc fusion)
# chain: B10 chain with G44E, S49A, L79V
# notes: as for B10
# B13: hz16G10v2 sdAb-Fc (Fc fusion)
# chain: B10 chain with G44E, S49A
# notes: as for B10
# B14: hz16G10v6 sdAb-Fc (Fc fusion)
# chain: B10 chain with G44E, S49A, G55A, L79V
# notes: as for B10
# B15: hz16G10v8 sdAb-Fc (Fc fusion)
# chain: B10 chain with G44E, S49A, E62D, S63F, L79V
# notes: as for B10
# B16: hz16G10v4 sdAb-Fc (Fc fusion)
# chain: B10 chain with G44E, S49A, N54Q, L79V
# notes: as for B10
# B17: hz12E9v4 sdAb-Fc (Fc fusion)
# chain: EVQLVESGGGEVQPGGSLRLSCAASRRPFSSKTMAWFRQAPGKEREFVAAVRWIGGATRYTESVKGRFTISRDNAKNTVYLQMSSLRAEDTAVYYCAAGQAWGTKFTDYSDWGQGTLVTVKP
# notes: Humanized variant of 12E9, linked to a human Fc; not shown: human Fc
# B18: hz12E9v1 sdAb-Fc (Fc fusion)
# chain: B17 chain with E44G, T61A, V79L
# notes: as for B17
# B19: hz12E9v2 sdAb-Fc (Fc fusion)
# chain: B17 chain with T61A, V79L
# notes: as for B17
# B20: hz12E9v6 sdAb-Fc (Fc fusion)
# chain: B17 chain with P14A, A40T, T61A
# notes: as for B17
# B21: hz12E9v3 sdAb-Fc (Fc fusion)
# chain: B17 chain with T61A
# notes: as for B17
# Target: T1, human 5T4 (trophoblast glycoprotein), …
# Experiment: flow cytometry (FL4H median), sdAb-Fc titrated on 5T4-positive T47D cells
# Procedure: Specificity and relative affinity were assessed for purified sdAb-Fcs on 5T4-expressing cells. Binding of 5T4-sdAb-Fc fusion proteins was assessed by flow cytometry using 5T4-expressing cells. A titration series of the fusion protein was incubated with the 5T4-expressing cell lines (approximately 2.5×10⁴ to 5×10⁴ cells/well) for 30 minutes at 4 degrees Celsius in FACS Buffer (PBS 1% BSA, 0.1% NaN₃ pH 7.4) in 96 well plates. Following three wash steps in FACS buffer, an APC-conjugated anti-human Fcγ specific secondary antibody (Jackson ImmunoResearch) was added and incubated for 30 minutes at 4 degrees Celsius. Following three additional wash steps in FACS buffer bound antibody was detected via flow cytometry (IQue Intellicyte).
# Humanized variant of the 5T4 sdAbs were tested for their ability to bind 5T4 expressing cells substantially as described in Example 2, and binding was compared to the parental sdAb. 5T4 expressing T47D cells were used in these studies. Results are shown in FIGS. 2A-2F, which confirm binding of the humanized variants. In some cases, binding was increased compared to the parental sdAb.
binding result,EC50 (read off the curve) [nM],Binder
binds,,B1
binds,,B2
binds,,B3
binds,,B4
,~2,B5
binds,,B6
binds,,B7
,~2,B8
binds,,B9
,~2,B10
,~5,B11
,~2,B12
,~2,B13
binds,,B14
binds,,B15
,~9,B16
,~0.2,B17
binds,,B18
,~0.2,B19
binds,,B20
,~0.2,B21

# From patent US20210340273A1 (INHLBRX, published 2021)
